Values of other authors, collected in publication PMC12564422.

Target: EGFR (epidermal growth factor receptor) (UniProt P00533)
Assay: cited
Settings: 3'-thiol; about 50 nm AuNPs, resuspended in water; aptamer M and Atto 1.2e-7 M, EGFR 880 pM, 1 h incubation; Tris-EDTA buffer listed among materials; salt, pH and …

For “GGACGGATTTAATCGCCGTAGAAAAGCATGTCAAAGCCGGAACCGTCC [aptamer M (EGFR-specific)]”, the Kd is listed as 2.4 nM.
